These results are taken from IntAct's records for PubMed 26226295.

B1: EH domain-containing protein 3 (Homo sapiens), Q9NZN3 (parent)
chain: MFSWLGTDDRRRKDPEVFQTVSEGLKKLYKSKLLPLEEHYRFHEFHSPALEDADFDNKPMVLLVGQYSTGKTTFIRYLLEQDFPGMRIGPEPTTDSFIAVMQGDMEGIIPGNALVVDPKKPFRKLNAFGNAFLNRFVCAQLPNPVLESISVIDTPGILSGEKQRISRGYDFAAVLEWFAERVDRIILLFDAHKLDISDEFSEVIKALKNHEDKMRVVLNKADQIETQQLMRVYGALMWSLGKIVNTPEVIRVYIGSFWSHPLLIPDNRKLFEAEEQDLFRDIQSLPRNAALRKLNDLIKRARLAKVHAYIISSLKKEMPSVFGKDNKKKELVNNLAEIYGRIEREHQISPGDFPNLKRMQDQLQAQDFSKFQPLKSKLLEVVDDMLAHDIAQLMVLVRQEESQRPIQMVKGGAFEGTLHGPFGHGYGEGAGEGIDDAEWVVARDKPMYDEIFYTLSPVDGKITGANAKKEMVRSKLPNSVLGKIWKLADIDKDGMLDDDEFALANHLIKVKLEGHELPNELPAHLLPPSKRKVAE
partner: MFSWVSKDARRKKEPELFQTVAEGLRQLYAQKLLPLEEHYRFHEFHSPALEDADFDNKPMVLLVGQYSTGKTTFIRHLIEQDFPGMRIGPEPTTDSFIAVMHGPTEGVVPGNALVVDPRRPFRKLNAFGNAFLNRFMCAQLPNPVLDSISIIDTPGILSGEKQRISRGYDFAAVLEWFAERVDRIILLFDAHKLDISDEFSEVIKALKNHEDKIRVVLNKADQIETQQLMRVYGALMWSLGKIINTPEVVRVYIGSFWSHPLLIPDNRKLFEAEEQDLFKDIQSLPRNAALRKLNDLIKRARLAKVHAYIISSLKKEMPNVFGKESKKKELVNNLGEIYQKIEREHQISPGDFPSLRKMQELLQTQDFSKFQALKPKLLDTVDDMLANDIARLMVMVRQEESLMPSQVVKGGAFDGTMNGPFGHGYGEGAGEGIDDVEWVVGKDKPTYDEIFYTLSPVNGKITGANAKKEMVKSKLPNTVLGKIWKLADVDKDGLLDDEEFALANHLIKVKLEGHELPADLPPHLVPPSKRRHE

The variants in the first assay derive from B1. Particulars: with ehd1_human EHD1, Q9H4M9.
With MFSWLGTDDRRRKDPEVFQTVSEGLKKLYKSKLLPLEEHYRFHEFHSPALEDADFDNKPMVLLVGQYSTGKTTFIRYLLEQDFPGMRIGPEPTTDSFIAVMQGDMEGIIPGNALVVDPKKPFRKLNAFGNAFLNRFVCAQLPNPVLESISVIDTPGILSGEKQRISRGYDFAAVLEWFAERVDRIILLFDAHKLDISDEFSEVIKALKNHEDKMRVVLNKADQIETQQLMRVYGALMWSLGKIVNTPEVIRVYIGSFWSHPLLIPDNRKLFEAEEQDLFRDIQSLPRNAALRKLNDLIKRARLAKVHAYIISSLRKEMPSVFGKDNKKKELVNNLAEIYGRIEREHQISPGDFPNLKRMQDQLQAQDFSKFQPLKSKLLEVVDDMLAHDIAQLMVLVRQEESQRPIQMVKGGAFEGTLHGPFGHGYGEGAGEGIDDAEWVVARDKPMYDEIFYTLSPVDGKITGANAKKEMVRSKLPNSVLGKIWKLADIDKDGMLDDDEFALANHLIKVKLEGHELPNELPAHLLPPSKRKVAE [K315R], the “effect of a mutation on the interaction” value is recorded as “with no effect”.
MFSWLGTDDRRRKDPEVFQTVSEGLKKLYKSKLLPLEEHYRFHEFHSPALEDADFDNKPMVLLVGQYSTGKTTFIRYLLEQDFPGMRIGPEPTTDSFIAVMQGDMEGIIPGNALVVDPKKPFRKLNAFGNAFLNRFVCAQLPNPVLESISVIDTPGILSGEKQRISRGYDFAAVLEWFAERVDRIILLFDAHKLDISDEFSEVIKALKNHEDKMRVVLNKADQIETQQLMRVYGALMWSLGKIVNTPEVIRVYIGSFWSHPLLIPDNRKLFEAEEQDLFRDIQSLPRNAALRKLNDLIKRARLAKVHAYIISSLKKEMPSVFGKDNKKKELVNNLAEIYGRIEREHQISPGDFPNLKRMQDQLQAQDFSKFQPLKSKLLEVVDDMLAHDIAQLMVLVRQEESQRPIQMVKGGAFEGTLHGPFGHGYGEGAGEGIDDAEWVVARDKPMYDEIFYTLSPVDGKITGANAKKEMVRSKLPNSVLGKIWKLADIDKDGMLDDDEFALANHLIKVRLEGHELPNELPAHLLPPSKRKVAE [K511R]: the “effect of a mutation on the interaction” value is recorded as “with no effect”.
On to MFSWLGTDDRRRKDPEVFQTVSEGLKKLYKSKLLPLEEHYRFHEFHSPALEDADFDNKPMVLLVGQYSTGKTTFIRYLLEQDFPGMRIGPEPTTDSFIAVMQGDMEGIIPGNALVVDPKKPFRKLNAFGNAFLNRFVCAQLPNPVLESISVIDTPGILSGEKQRISRGYDFAAVLEWFAERVDRIILLFDAHKLDISDEFSEVIKALKNHEDKMRVVLNKADQIETQQLMRVYGALMWSLGKIVNTPEVIRVYIGSFWSHPLLIPDNRKLFEAEEQDLFRDIQSLPRNAALRKLNDLIKRARLAKVHAYIISSLRKEMPSVFGKDNKKKELVNNLAEIYGRIEREHQISPGDFPNLKRMQDQLQAQDFSKFQPLKSKLLEVVDDMLAHDIAQLMVLVRQEESQRPIQMVKGGAFEGTLHGPFGHGYGEGAGEGIDDAEWVVARDKPMYDEIFYTLSPVDGKITGANAKKEMVRSKLPNSVLGKIWKLADIDKDGMLDDDEFALANHLIKVRLEGHELPNELPAHLLPPSKRKVAE [K315R;K511R], for which the “effect of a mutation on the interaction” value is “with no effect”.

The variants in another assay derive from B1. As to conditions: with ehd1_human EHD1, Q9H4M9. This is another data set of the same source.
As for MFSWLGTDDRRRKDPEVFQTVSEGLKKLYKSKLLPLEEHYRFHEFHSPALEDADFDNKPMVLLVGQYSTGKTTFIRYLLEQDFPGMRIGPEPTTDSFIAVMQGDMEGIIPGNALVVDPKKPFRKLNAFGNAFLNRFVCAQLPNPVLESISVIDTPGILSGEKQRISRGYDFAAVLEWFAERVDRIILLFDAHKLDISDEFSEVIKALKNHEDKMRVVLNKADQIETQQLMRVYGALMWSLGKIVNTPEVIRVYIGSFWSHPLLIPDNRKLFEAEEQDLFRDIQSLPRNAALRKLNDLIKRARLAKVHAYIISSLKKEMPSVFGKDNKKKELVNNLAEIYGRIEREHQISPGDFPNLKRMQDQLQAQDFSKFQPLKSKLLEVVDDMLAHDIAQLMVLVRQEESQRPIQMVKGGAFEGTLHGPFGHGYGEGAGEGIDDAEWVVARDKPMYDEIFYTLSPVDGKITGANAKKEMVRSKLPNSVLGKIWKLADIDKDGMLDDDEFALANHLIKVRLEGHELPNELPAHLLPPSKRKVAE [K511R], the “effect of a mutation on the interaction” value is on record as “decreasing interaction”.
Take MFSWLGTDDRRRKDPEVFQTVSEGLKKLYKSKLLPLEEHYRFHEFHSPALEDADFDNKPMVLLVGQYSTGKTTFIRYLLEQDFPGMRIGPEPTTDSFIAVMQGDMEGIIPGNALVVDPKKPFRKLNAFGNAFLNRFVCAQLPNPVLESISVIDTPGILSGEKQRISRGYDFAAVLEWFAERVDRIILLFDAHKLDISDEFSEVIKALKNHEDKMRVVLNKADQIETQQLMRVYGALMWSLGKIVNTPEVIRVYIGSFWSHPLLIPDNRKLFEAEEQDLFRDIQSLPRNAALRKLNDLIKRARLAKVHAYIISSLRKEMPSVFGKDNKKKELVNNLAEIYGRIEREHQISPGDFPNLKRMQDQLQAQDFSKFQPLKSKLLEVVDDMLAHDIAQLMVLVRQEESQRPIQMVKGGAFEGTLHGPFGHGYGEGAGEGIDDAEWVVARDKPMYDEIFYTLSPVDGKITGANAKKEMVRSKLPNSVLGKIWKLADIDKDGMLDDDEFALANHLIKVRLEGHELPNELPAHLLPPSKRKVAE [K315R;K511R]: the “effect of a mutation on the interaction” value is “disrupting interaction”.
